Data reported in the nanobody polyreactivity screen of Harvey et al. (2022).

assay: yeast display, Sf9 membrane polyspecificity reagent, FACS + sequencing; frameworks hold sequencing errors
Outline: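 Galactose-induced (36–48 hours) yeast carrying a synthetic nanobody display library were exposed to 10% biotinylated, detergent-solubilized Sf9 membrane reagent at 4 °C for 1 hour. FACS followed streptavidin microbead enrichment, using low and high (top ~1%) gates for expression (anti-HA) and reagent binding (streptavidin). Colony PCR, MiSeq 2 × 250 sequencing and CDR-length filtering followed. Labels for polyreactivity reflect the gate of origin.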

Sequence | polyreactivity (PSR sort gate)
QVQLLESGGGLDQAGGTLRLSCAASGGTINLYAMAWYRPAPGKERELVAAISWSGGTTYYADSVKGRFTLSRDNAKNTVYLQIISLKPVDTAVYYCAAYFRTSLGTYDYWGQGTKVTVSS | high polyreactivity
QVQLVESGGCLVQAGGSLRLSCAASGFIFDPYVMGWYIQAPGKERELVAAITYNGGRTYYADSVKGRFTISRDNAKNTVYLQMNSLKPEDTAVYYCNKDYRIGQTWYDYWGQVTQVTVSS | low polyreactivity
QVQLVESGGVLVQAGGSLRLSCAASGSTFLGYAMGWYRQAPGKERELVAAISSGGSTNYADSVKGRFTLSRDNAKNTVYLQMNSLKPDDTAVYYCGARTRRFRYYYWGQGPQVTVSS | high polyreactivity
QVQLVESGGGLVQAGGSLRLSCAASGRIFPTYAMGWYRQAPGKERELVAAITWRGGRTYYADSEKGRFTISRDYAKNTVYLQMNSLKPEDTAVYYCAAGWLTRSYEYDYWGQGTQVTVSS | high polyreactivity
QVPLVESGGGLVQAGGSLRLSCAASGRTFGRYAMGWYRQTHGKERELVASISWRGGSTYYADSVKGRFTISRDYAKNTVFLQMNSLKPEDTAVYYCAVRFLTYWHGSYWYDYWGQGTQVTVSS | high polyreactivity
QVQLVESGGGLVQAGGSLRLSCAASGRIFYANDMGWYRQAPGKERELVAAITNTVSTTYADSVKGRFTISRDNAKNTVYLQMNSLKPEDTAVYYCNADDPYVPKADMGYWGQGTQVTVSS | low polyreactivity
QVQLVESGVGIVQAGGSLRLSCAASGSTFRAYVMGWYRQAPGKERELVAVISSGGSTKYADSVKGRFTISRDNAKNTDYVQMNSLKPVDTAVYYCAARRASRHRYYPFDYWGQGTQVTVSS | high polyreactivity
QVQLVESGGGLVQAGGSLRLSCAASGSTFGRNALGWYRQAPGKERELVASISWGGGSTYYADSVKGRFTISRDNAKNTVYLQMNSLKPEDTAVYYSNARRFLWSQLSGSFSYDYWGQGTQVTVSS | high polyreactivity
QVQLVESGGGLVQAGGSLRLSCAASGGILVGYDMGWYRQAPGKERELVAAINYSGGSTNYADSVKGRFTISRDNAKNTVYLQMNSLKTEDTALYYCAARSTARYGYWGQGTQVTVSS | low polyreactivity
QVQLVESGGGLVQAGGSLRLRCAASGRTFARYAMGWYRQAPGKERELVAAISWSGGSTYYADSVKARFTISRDNAKNTVYLQMNSLKPVDTAVYYCAARRPTSPRRYESWGQGTQVTVSS | high polyreactivity
QVQLVESGGGLVQAGGSLRLSCAASGRIFFRNAMGWYRQAPGKERELVAAITYSGGSTYYADSVKGRFTISRDNAKNTVYFQMNSLKPEDTAVYYCYADYYPYGEYDYWGQGTQVTVSS | high polyreactivity
QVQLVESGGGLVQAGGRLRLSCAASGRILRWYTMGWYRQAPGKERELVAAITSRGGSTYYADSVKGRFTISRDNAKNTVYLQMNSLKPEDTAVYYCAAVSWYTRLTYYYWGQGTQVTVSS | high polyreactivity
QVQLVESGGGLVQAGGSLRLSCAASGRTLFYYTMGWYRQAPGKVRELVAAITTGGRTYYADSVKGRFTISRDNAKNTVYLQMNSLNPEDTAVYYCAAHTYYYPVGFNYWGPGTQVTVSS | low polyreactivity
QVQLVESGGGLVQAGGSLRLSCAASGRTFNPYAMGWYRQAPGKERELVAAIRWRGTRTYYADSVKGRFTISRDNAKNTVYLQMNSLKPEDTAVYYCNALLGYYRWRRPVDYSYGSWGQGTQVTVSS | high polyreactivity
QVKLEESGGGLVQAGGSLRLTCAASGSTFKYNAMGWYRQAPGKERELVAAISSGGSTNYADSVKGRFTISRDNAMNTVYLQMISLKPEDTAVYYCNADYTYVTAWYYYWGQGTQVTVSS | high polyreactivity
QVQLVESGGGLVQAGGSLRLSCAASGRNFGRYAMGCYRQAPGKERELVAAITGRGASTYYADSVKGRFTISRDNAKHTVYLQMNSLKPEDTAVYYCNAFRGAQGTDAYDWGQGTQVPVSS | low polyreactivity
QVQLVESGGGLVQAGGSLRLSCAASGLTFGSYAMGWYRQAPGKERELVAAISRSGITYYADSVKGRFTISRDNAKNTVYLQMNSLKPEDTAVYYWAVTQNSKSTKIRPDQGDYGGQGTQVTVSS | high polyreactivity
QVQLVESGGGLVQAGGSLRLSCAASGRTFAYNAMGWYRQAPGKERELVAAITFGGGSTYYADSVKGRFTISRDNAKNTVYLQMNSLKPEDTAVYYCTAERGYYYHFGYWGQGTQVTVSS | high polyreactivity
QVQLVESGGGLVQAGGSLRLSCAASGSTFSKNAMGWNRQAPGKERELFAAIRSRGGSTYYADSVKGRFTISRDNAKNTVYLQMNSLKPEDTAVYYCNKVRAYECDYWGQGTKVTVSS | high polyreactivity
QVQLVESGGGLVQAGGSLRLSCAASGSIFSYYAMGCYRQAPGKERQLVASISWIGTSTYYADSVKGRFTISRDNAKNTFYLQINSLKPEDTAVYYCNADWTYYGFGTRLDYWGQGTQVTVSS | low polyreactivity
QVQLVESGGGLVQAGGSLRLSCAASGRIFFPYAMGWYRQAPGKERELVAVITSGGTTYYADSVKGRFRISRDNAKNTVYLQMNSLKTEDTAVYYCAVHWYSYRYAATMDYWGQGTQVTVSS | high polyreactivity

Sequence | polyreactivity (PSR sort gate)
QVQLVESGGGLVQAGGSLRLSCAASGNIFRPYTMGWYRQAPGKERELVARISSGGSTNYADSVKGRFTISRDNGKYTDYFQLNSLKPEVTAVYYWSKRYGTVLSRYGYLGQGTQVTVSS | high polyreactivity
QVQLVESGGGLVQAGGSLRLICAASGNTFVDYAMGWYRQAPGKELELVAAISRSGGSTYADSVKGRFTISRDNAKNTVYLQMNSLKPEDTAVYYCAAYSGVGYLWFDYWGQGTQVTVSS | low polyreactivity
QVQLVESGGGLVQAGGSLRLSCAASGRIFPRNAMGWYRQAPGQERELVAAITKSGGSTYYADSVKGRFTISRDNAKNTVYLQMNSLKPEDTAVYYCNAVQYRNYYWGQGTQVTVSS | high polyreactivity
QVQLVESVGGLVQAGGSLRLSCAASGITFDRNAMGWYRQAPGKERELVAAISSGGTYADSVKGRFTISRDNAKNTVYLQMNSLKPEDTAVYYCNADTDYIRWIYGYWGQGTQVTVSS | low polyreactivity
QVQLVESGGGLVQAGGSLRLTCAASGSTFQVNDMGWYRQAPGKDRELLASISGGSSTNYADSVKGRFTISRDNAKNTVYLQMHSLQPEDTAVYYCAAYYLSGLRVAYDYWGQGPQVTVSS | low polyreactivity
QVQLVESGGGLVQAGGSLRLSCAASGRTFYVNAMGWYRQAPGKERELVAAINTIGGRTYYADSVKGRFTISRDNAKNTVYLQMNSLKTEDTAVYYCAARQVSRWGYDYWGQGTQVTVSS | high polyreactivity
QVQLVESGGGLVQAGGSLRLSCAASGRIFTWNAMGWYRQAPGKERELVASISRSGTSTYYADSVKGRFTISRDNAKNTVYLQMNSLKPEDTAVYYCNARTIYYYFRLSTPYNYWGQGTQVTVSS | high polyreactivity
QVQLVESGGGLVQAGGSLRLSCAASGLIFYIYMGWYRQAPGKESELVAVISSSGNSTYYADSVKGRFTISRYNAKNTVYLQLNSLKPEDTAVYYCNASAYYPPSSSRYYYWGQGTQVTVSS | low polyreactivity
QVQLVESGGGLVQAGGSLRLSCAASGFTLLTYVMGWYRQAPGKERELVAAISKSGSRTYYADSVKWRFTISRDNAKNTVYLQMNRLKPVDTPVYYCAADTSAYRYDYWGQGTQVTVSS | high polyreactivity
QVQLVESGGGLVQAGGSLRLSCAASGGTFNSNAMGWYRQAPGKEREFVAAISSSGGSTYYADSVKGRFTISRDNAKNTVYLQMNSLKPEDTAVYYCAKRYPYPNGRFRFGYWGQGTQVTVSS | high polyreactivity
QVKLVESGGGLVQAGGSLRLSCAESGRIFHHYAMGWYRQAPGKERELVAAITGGGSTYYADSVKVRFTISRYNAKITVYLQMNSLKPEDTAVYYCAAPPFGYYEVGYDSWGQGSQVTVSS | low polyreactivity
QVQLVESGGGLVQAGGSLRLSCAGLRIYLPGYARGWYRQAPGKERELVAVISGSGSGTYYADSVKGRFTISRDNAKNTVYLQMNSLKPEDTAVYYCAADDVGRGSTPYDYWGQGTQVTVSS | high polyreactivity
QVQLVESGGGLVQAGGSLRLSCAASGSTFIRNTMGWYRQAPGKERELLAAISRSGVRTYYADSVKGRFTISRDNAKNTVYLQINSLKPEDTAVSYCAAVSSLSYSFPYDYWGQGTQVTVST | high polyreactivity
QVQLVESGGGLVQAGGSLRLSCAASGSTFYHYAMGWYRQAPGKERELVAAISWSGGSTYYADSVKGSFTISRDNAKNTVYLLMYSLKPEDTAVYYCNALLSGLTSTEYDYWGQGTQVTVSS | high polyreactivity
QVQLHESGGGLEQAGGSLRLSCAASGYISDIGTMGWYRQAPGKEREFVATIVVGSTTNYADSVKGRFTISRDNAKNSVYLQPESGRYRGVLLRGWLLAVGKFTYWGQGTQETVSS | low polyreactivity
RVQLVESGGGLVQAGGSLRLSCAASGRIFKYYAMGWYRPAPGTERELVASITIGSTTYADSVKGRFTISRDNAMNTVYLHMNSLKPEDTAVYYCNRVYRQRLGRDYWGQGTQVTVSS | high polyreactivity
QVQLVESGGGLVQAGGSLRLSCAASGRTSGGNAMGWYRQAPGKERELVAAISLRGGGTYYADSVKGRFTISRDNAKNTVYLQMNSLIPEDTAVFYCAAEFTYYGARWGYLGDLDYWGQGTQVTVSS | high polyreactivity
QVQLVESGGGLVQAGGSLRLSCAASGSTFTYYAMGWYRQAPGKERELVAAITSRGGITYYADSVKGRFTISRDNAKNTVYLQMHSLKPEDTAVYYCNAYSQRYGYYYWGQGTQVTVSS | high polyreactivity
QVQLVESGGGLVQAGCSLRLSCAASGFTFYQNVMGWYRQAPGKERELVASINRRGGSTYYADSVKGRFTISRDNAMNTVYLQKNSLKPEDTAVYYCAARTYRFYTRQLDYWGQGTQVTVSS | high polyreactivity
QVQHVESGGGLVQAGGSLRLSCAASGSTFANNAMGWYRQAPGKERELVASITTDGSTNYADSVKGRFTISRDNAKNPVYLQMNSLKPEDSAVYYCAADYHTPSSFAPIELYDYCGQGTQVTVSS | low polyreactivity
